In this assay the target is STAT3 (127-711)-His6 I568F (HIES mutant) (human) (UniProt P40763). As to the kind of experiment: ITC.

One substance from paper PMC4767637 can be followed below.

Sequence of STAT3 (127-711)-His6 I568F (HIES mutant) (human) (P40763 127-711 I568F): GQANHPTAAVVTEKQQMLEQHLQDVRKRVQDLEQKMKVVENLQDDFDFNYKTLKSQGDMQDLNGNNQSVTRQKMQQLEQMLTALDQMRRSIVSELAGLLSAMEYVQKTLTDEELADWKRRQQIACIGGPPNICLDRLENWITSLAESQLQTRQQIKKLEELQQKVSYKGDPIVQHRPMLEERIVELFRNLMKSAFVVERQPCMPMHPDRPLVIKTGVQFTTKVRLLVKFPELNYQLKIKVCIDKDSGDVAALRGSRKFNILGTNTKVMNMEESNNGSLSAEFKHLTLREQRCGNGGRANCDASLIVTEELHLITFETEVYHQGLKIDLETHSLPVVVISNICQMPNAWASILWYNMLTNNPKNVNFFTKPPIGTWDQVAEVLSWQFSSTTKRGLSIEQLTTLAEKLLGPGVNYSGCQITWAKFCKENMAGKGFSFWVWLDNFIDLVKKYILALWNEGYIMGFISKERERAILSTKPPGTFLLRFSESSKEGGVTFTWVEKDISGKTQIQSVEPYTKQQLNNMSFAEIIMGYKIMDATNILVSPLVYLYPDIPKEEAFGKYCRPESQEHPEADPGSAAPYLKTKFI

Turning to “phosphotyrosine peptide derived from gp130 (pY904)”, the fold reduction in binding affinity against WT STAT3 worked out at 5 fold.
